Measurements: patent US20200317768A1 (published 2020)
Where a chain is given by its changes, count along the chain named.

T1: cynomolgus monkey FcγRIIa1 extracellular domain, His-tagged (cynomolgus monkey)
T1 construct: also called cyno FcγRIIa1; cynoFcgRIIa1
T1 chain: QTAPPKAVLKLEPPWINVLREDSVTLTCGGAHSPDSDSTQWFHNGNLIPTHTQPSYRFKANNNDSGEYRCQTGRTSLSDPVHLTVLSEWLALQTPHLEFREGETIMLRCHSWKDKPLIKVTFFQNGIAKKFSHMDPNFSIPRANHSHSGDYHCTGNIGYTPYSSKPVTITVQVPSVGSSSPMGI

T2: cynomolgus monkey FcγRIIa2 extracellular domain, His-tagged (cynomolgus monkey)
T2 construct: also called cyno FcγRIIa2; cynoFcgRIIa2
T2 chain: T1 chain with P95T, T121A, I127K, A128S, K130N, D135N, R142Q

T3: cynomolgus monkey FcγRIIa3 extracellular domain, His-tagged (cynomolgus monkey)
T3 construct: also called cyno FcγRIIa3; cynoFcgRIIa3
T3 chain: T1 chain with P95T, T121A, A128S, H133P, D135N

T4: cynomolgus monkey FcγRIIb extracellular domain, His-tagged (cynomolgus monkey)
T4 construct: also called cyno FcγRIIb; cynoFcγRIIb
T4 chain: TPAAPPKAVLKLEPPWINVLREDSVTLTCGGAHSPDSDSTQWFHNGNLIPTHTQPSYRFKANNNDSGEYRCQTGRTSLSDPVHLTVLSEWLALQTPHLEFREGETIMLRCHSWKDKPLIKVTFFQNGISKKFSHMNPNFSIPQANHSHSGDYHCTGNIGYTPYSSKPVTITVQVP

T5: cynomolgus monkey FcγRIIIaS extracellular domain, His-tagged (cynomolgus monkey, UniProt Q8SPW2 21-206 at identity 1.00))
T5 construct: also called cyno FcγRIIIaS; cynoFcγRIIIaS
T5 chain: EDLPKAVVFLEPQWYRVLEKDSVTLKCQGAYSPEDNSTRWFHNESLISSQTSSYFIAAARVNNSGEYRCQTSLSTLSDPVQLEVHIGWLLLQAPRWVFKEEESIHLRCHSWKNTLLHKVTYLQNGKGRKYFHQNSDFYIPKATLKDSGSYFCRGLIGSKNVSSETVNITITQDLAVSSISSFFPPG

T6: human FcγRIIaH extracellular domain, His-tagged (human, UniProt P12318 34-217)
T6 construct: also called human FcγRIIa (type H); FcgRIIaH
T6 sequence: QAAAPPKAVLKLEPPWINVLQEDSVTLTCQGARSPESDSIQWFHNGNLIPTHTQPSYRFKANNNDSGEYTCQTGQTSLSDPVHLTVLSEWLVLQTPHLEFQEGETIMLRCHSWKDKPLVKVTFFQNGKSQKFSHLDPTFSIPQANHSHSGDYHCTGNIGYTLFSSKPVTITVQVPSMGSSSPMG

T7: human FcγRIIaR extracellular domain, His-tagged (human, UniProt P12318 34-217)
T7 construct: also called human FcγRIIa (type R); FcgRIIaR
T7 chain: T6 sequence with H134R

T8: human FcγRIIb extracellular domain, His-tagged (human, UniProt P31994 43-217)
T8 construct: also called FcgRIIb (human)
T8 sequence: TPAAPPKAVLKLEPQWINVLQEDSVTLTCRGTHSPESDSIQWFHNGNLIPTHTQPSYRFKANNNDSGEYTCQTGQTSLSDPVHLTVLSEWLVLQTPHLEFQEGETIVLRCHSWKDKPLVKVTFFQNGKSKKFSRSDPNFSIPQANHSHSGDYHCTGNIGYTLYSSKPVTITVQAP

B1: M103205H795-MY001/M103202L889-SK1 (antibody, human IgG1, kappa)
heavy: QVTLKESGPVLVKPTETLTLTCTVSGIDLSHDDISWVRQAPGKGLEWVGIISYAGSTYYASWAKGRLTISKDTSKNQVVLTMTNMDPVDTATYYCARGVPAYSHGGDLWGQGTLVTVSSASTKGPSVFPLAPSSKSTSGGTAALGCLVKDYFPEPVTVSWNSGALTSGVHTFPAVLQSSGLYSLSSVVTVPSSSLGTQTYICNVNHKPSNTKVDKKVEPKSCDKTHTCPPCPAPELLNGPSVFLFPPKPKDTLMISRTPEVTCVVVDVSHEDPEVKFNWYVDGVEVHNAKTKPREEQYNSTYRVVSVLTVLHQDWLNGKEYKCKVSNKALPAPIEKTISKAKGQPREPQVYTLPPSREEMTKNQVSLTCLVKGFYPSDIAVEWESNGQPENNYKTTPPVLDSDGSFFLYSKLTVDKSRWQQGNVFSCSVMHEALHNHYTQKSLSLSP
light: DIVMTQSPATLSLSPGERATLSCTSSQSVYHANWLSWFQQKPGQPPKLLIYWASTLAYGVPSRFSGSGSGTDFTLTISSLQPEDAATYYCAGGYGGGRYAFGQGTKVEIKRTVAAPSVFIFPPSDEQLKSGTASVVCLLNNFYPREAKVQWKVDNALQSGNSQESVTEQDSKDSTYSLSSTLTLSKADYEKHKVYACEVTHQGLSSPVTKSFNRGEC
notes: Substitution put into M103205H795-SG1
B2: M103205H795-MY011/M103202L889-SK1 (antibody, human IgG1, kappa)
heavy: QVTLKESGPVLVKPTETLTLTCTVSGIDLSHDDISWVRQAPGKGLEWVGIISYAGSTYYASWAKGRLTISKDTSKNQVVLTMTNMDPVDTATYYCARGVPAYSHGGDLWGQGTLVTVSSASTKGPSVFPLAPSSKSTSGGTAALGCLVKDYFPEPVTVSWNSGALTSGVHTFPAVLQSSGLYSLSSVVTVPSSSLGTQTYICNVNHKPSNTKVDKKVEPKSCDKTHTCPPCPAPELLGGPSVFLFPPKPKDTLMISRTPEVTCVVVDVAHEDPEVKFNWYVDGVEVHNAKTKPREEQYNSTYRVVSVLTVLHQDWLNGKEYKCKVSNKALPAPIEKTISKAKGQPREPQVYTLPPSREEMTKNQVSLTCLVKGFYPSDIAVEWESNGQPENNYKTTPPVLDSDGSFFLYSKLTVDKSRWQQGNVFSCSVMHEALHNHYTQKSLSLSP
light: B1 light
notes: Put into M103205H795-SG1
B3: M103205H795-MY042/M103202L889-SK1 (antibody, human IgG1, kappa)
heavy: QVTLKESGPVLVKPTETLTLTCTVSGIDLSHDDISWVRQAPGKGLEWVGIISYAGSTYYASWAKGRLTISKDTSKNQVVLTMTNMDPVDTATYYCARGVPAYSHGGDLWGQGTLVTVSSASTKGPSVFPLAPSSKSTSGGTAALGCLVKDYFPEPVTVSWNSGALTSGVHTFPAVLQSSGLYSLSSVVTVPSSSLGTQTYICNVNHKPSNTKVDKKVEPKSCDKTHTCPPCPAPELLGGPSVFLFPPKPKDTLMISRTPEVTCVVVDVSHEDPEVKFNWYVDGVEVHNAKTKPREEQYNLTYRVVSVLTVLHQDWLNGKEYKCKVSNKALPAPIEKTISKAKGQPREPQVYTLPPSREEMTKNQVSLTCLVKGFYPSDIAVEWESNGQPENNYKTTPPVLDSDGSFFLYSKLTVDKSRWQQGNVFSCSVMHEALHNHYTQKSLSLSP
light: B1 light
notes: as for B1
B4: M103205H795-MY074/M103202L889-SK1 (antibody, human IgG1, kappa)
heavy: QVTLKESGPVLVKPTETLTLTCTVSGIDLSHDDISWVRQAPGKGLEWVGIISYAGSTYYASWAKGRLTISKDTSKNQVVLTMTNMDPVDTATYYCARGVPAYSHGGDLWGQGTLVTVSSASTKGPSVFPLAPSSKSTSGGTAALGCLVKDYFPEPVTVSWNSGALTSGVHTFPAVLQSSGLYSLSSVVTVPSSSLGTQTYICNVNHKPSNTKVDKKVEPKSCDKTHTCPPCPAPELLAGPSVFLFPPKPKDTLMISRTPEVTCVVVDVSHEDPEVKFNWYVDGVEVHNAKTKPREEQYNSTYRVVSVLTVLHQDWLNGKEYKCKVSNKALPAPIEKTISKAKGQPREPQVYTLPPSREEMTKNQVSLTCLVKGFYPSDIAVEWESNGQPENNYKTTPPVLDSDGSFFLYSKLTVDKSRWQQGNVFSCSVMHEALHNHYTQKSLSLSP
light: B1 light
notes: as for B1

Target: T1, cynomolgus monkey FcγRIIa1 …
Test: SPR; KD of SG1 / KD of variant;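 note: relative to parent M103205H795-SG1 carrying the SG1 human heavy chain constant region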

KD fold (SG1 = 1) | Binder
1.1 fold | B1
1.4 fold | B2
6.3 fold | B3
1.6 fold | B4

Target: T2, cynomolgus monkey FcγRIIa2 …
Test: SPR; KD of SG1 / KD of variant;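 note: relative to parent M103205H795-SG1 carrying the SG1 human heavy chain constant region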

KD fold (SG1 = 1) | Binder
1.4 fold | B1
1.8 fold | B2
1.6 fold | B3
2.2 fold | B4

Target: T3, cynomolgus monkey FcγRIIa3 …
Test: SPR; KD of SG1 / KD of variant;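 note: relative to parent M103205H795-SG1 carrying the SG1 human heavy chain constant region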

KD fold (SG1 = 1) | Binder
1.2 fold | B1
1.7 fold | B2
2.1 fold | B3
2.7 fold | B4

Target: T4, cynomolgus monkey FcγRIIb extracellular …
Test: SPR; KD of SG1 / KD of variant;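 note: relative to parent M103205H795-SG1 carrying the SG1 human heavy chain constant region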

KD fold (SG1 = 1) | Binder
1 fold | B1
1.8 fold | B2
1.1 fold | B3
1.6 fold | B4

Target: T5, cynomolgus monkey FcγRIIIaS …
Test: SPR; KD of SG1 / KD of variant

KD fold (SG1 = 1) | Binder
0.03 fold | B1
2.4 fold | B2
0.82 fold | B3
1.33 fold | B4

target: T6, human FcγRIIaH extracellular domain, …; test: SPR; KD of SG1 / KD of variant

KD fold (SG1 = 1) | Binder
0.2 fold | B1
1.4 fold | B2
0.7 fold | B3
7.5 fold | B4

Target: T7, human FcγRIIaR extracellular domain, …
Test: SPR; KD of SG1 / KD of variant

KD fold (SG1 = 1) | Binder
0.1 fold | B1
6.5 fold | B2
1.1 fold | B3
5.2 fold | B4

target: T8, human FcγRIIb extracellular domain, …; test: SPR; KD of SG1 / KD of variant

KD fold (SG1 = 1) | Binder
0.6 fold | B1
7 fold | B2
1.2 fold | B3
1.3 fold | B4

target: T9, human FcγRIIIaV extracellular domain, His-tagged (human, UniProt P08637 17-208); test: SPR; KD of SG1 / KD of variant
T9 construct: also called FcgRIIIaV
T9 sequence (P08637 17-208 F176V): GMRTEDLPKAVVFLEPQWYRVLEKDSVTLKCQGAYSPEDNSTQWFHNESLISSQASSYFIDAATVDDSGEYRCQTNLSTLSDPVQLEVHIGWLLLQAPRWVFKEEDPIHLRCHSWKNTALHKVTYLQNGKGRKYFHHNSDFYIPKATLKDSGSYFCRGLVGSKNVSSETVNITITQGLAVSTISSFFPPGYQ

KD fold (SG1 = 1) | Binder
0.84 fold | B1
2.38 fold | B2
1.53 fold | B3
1.45 fold | B4

Target: T1, cynomolgus monkey FcγRIIa1 …
Test: SPR, antibody captured, FcgR analyte
Description: (§1) The kinetic analysis of interactions between these antibodies and FcγR was carried out using BIACORE® T200 or BIACORE® 4000 (GE Healthcare). HBS-EP+ (GE Healthcare) was used as the running buffer, and the measurement temperature was set to 25° C. A chip produced by immobilizing Protein A. Protein A/G or mouse anti-human IgG kappa light chain (BD Biosciences) onto a Series S Sensor Chip CM4 or CM5 (GE Healthcare) by the amine-coupling method was used. […] After the measurement, the antibody captured on the chip was washed off by allowing reaction with 10 mM glycine-HCl, pH1.5 and 25 mM NaOH so that the chip was regenerated and used repeatedly. The sensorgrams obtained as measurement results were analyzed by the 1:1 Langmuir binding model using the BIACORE® Evaluation Software to calculate the binding rate constant ka (L/mol/s) and dissociation rate constant kd (l/s), and the dissociation constant KD (mol/L) was calculated from these values. […] Regarding such interactions, KD values were calculated using the following 1:1 binding model described in BIACORE® T100 Software Handbook BR1006-48 Edition AE.
(§2) The behavior of interacting molecules according to the 1:1 binding model on BIACORE® can be described by Equation 1: Req=C·R max/(KD+C)+RI, wherein, Req is a plot of steady-state binding levels to analyte concentration. C is concentration, RI is bulk refractive index contribution in the sample, and Rmax is analyte binding capacity of the surface. When this equation is rearranged, KD can be expressed as Equation 2: KD=C·Rmax/(Req−RI)−C. KD can be calculated by substituting the values of Rmax, RI, and C into Equation 1 or Equation 2. From the current measurement conditions, RI=0, C=2 μmol/L can be used.

Kd | Binder
2900 nM | B1
2000 nM | B4

Target: T2, cynomolgus monkey FcγRIIa2 …
Test: SPR, antibody captured, FcgR analyte
Description: as §1, §2

Kd | Binder
3500 nM | B1
2800 nM | B2
3100 nM | B3

Target: T3, cynomolgus monkey FcγRIIa3 …
Test: SPR, antibody captured, FcgR analyte
Description: as §1, §2

Kd | Binder
15000 nM | B1
9900 nM | B2
8000 nM | B3
6200 nM | B4

Target: T4, cynomolgus monkey FcγRIIb extracellular …
Test: SPR, antibody captured, FcgR analyte
Description: as §1, §2

Kd | Binder
1800 nM | B1
1000 nM | B2
1600 nM | B3
1100 nM | B4

Target: T5, cynomolgus monkey FcγRIIIaS …
Test: SPR, antibody captured, FcgR analyte
Description: as §1, §2

Kd | Binder
1200 nM | B1
150 nM | B2
440 nM | B3
270 nM | B4

target: T6, human FcγRIIaH extracellular domain, …; test: SPR, antibody captured, FcgR analyte
Description: as §1, §2

Kd | Binder
3200 nM | B1
490 nM | B2
1000 nM | B3
92 nM | B4

Target: T7, human FcγRIIaR extracellular domain, …
Test: SPR, antibody captured, FcgR analyte
Description: as §1, §2

Kd | Binder
8200 nM | B1
170 nM | B2
980 nM | B3

target: T8, human FcγRIIb extracellular domain, …; test: SPR, antibody captured, FcgR analyte
Description: as §1, §2

Kd | Binder
7700 nM | B1
660 nM | B2
4000 nM | B3
8600 nM | B4

target: T9, human FcγRIIIaV extracellular domain, …; test: SPR, antibody captured, FcgR analyte
Description: as §1, §2

Kd | Binder
340 nM | B2
530 nM | B3
560 nM | B4
